Assay results taken from doi:10.1101/2025.04.26.650775, “Evolution of a fuzzy ribonucleoprotein complex in viral assembly” (bioRxiv, 2025).

Columns and labels:
[1] = biological target: SARS-CoV-2 N-protein N:R203K/G204R, full-length (SARS-CoV-2) (UniProt P0DTC9); test: mass photometry
[2] = biological target: SARS-CoV-2 N-protein Nο (Omicron set N:P13L/Δ31–33/R203K/G204R), full-length (SARS-CoV-2) (UniProt P0DTC9); test: mass photometry
[3] = biological target: SARS-CoV-2 N-protein N:G215C* (oxidized), full-length (SARS-CoV-2) (UniProt P0DTC9); test: mass photometry
[4] = biological target: SARS-CoV-2 N-protein N:G215C (reduced), full-length (SARS-CoV-2) (UniProt P0DTC9); test: AUC
[5] = biological target: SARS-CoV-2 N-protein N:G215C (reduced), full-length (SARS-CoV-2) (UniProt P0DTC9); test: mass photometry
[6] = biological target: the molecule itself; test: dynamic light scattering

“SARS-CoV-2 N-protein N:R203K/G204R, full-length (from UniProt P0DTC9 1-419) (natural protein)” was tested, and the best-fit effective RNP life-time (with SL7 RNA) [1] was 54.6 s.

With “SARS-CoV-2 N-protein Nο (Omicron set N:P13L/Δ31–33/R203K/G204R), full-length (from UniProt P0DTC9 1-419) (natural protein)” the best-fit effective RNP life-time (with SL7 RNA) [2] was 58.5 s.

“SARS-CoV-2 N-protein N:G215C* (oxidized), full-length (from UniProt P0DTC9 1-419) (natural protein)” was tested, and the best-fit effective RNP life-time (with SL7 RNA) [3] was 41.8 s.

Work on “SARS-CoV-2 N-protein N:G215C (reduced), full-length (from UniProt P0DTC9 1-419) (natural protein)” yielded a Kd [4] of 1 µM and a best-fit effective RNP life-time (with SL7 RNA) [5] of 231 s.

B1: LRS peptide N_(210–246):G214C (peptide)
peptide: MAGNCGDAALALLLLDRLNQLESKMSGKGQQQQGQTV
B1: binds [6].
